Test results published in patent publication US20140105889A1 (published 2014).
Substitutions are numbered along the chain they refer to. Names may count otherwise. Each block holds one binder with its values, some of them ahead of it.

Key:
human FcγRIa = target: T1, human FcγRIa (human, UniProt P12314 16-292, limits assumed); assay: SPR (Biacore), antibody captured on the chip, FcγR as analyte
T1 construct: also called CD64

[1] = target: T2, human FcγRIIa type R (allotype R131) (human, UniProt P12318 36-217); assay: as above
T2 construct: also called FcγRIIaR; FcγRIIa(R)
T2 chain: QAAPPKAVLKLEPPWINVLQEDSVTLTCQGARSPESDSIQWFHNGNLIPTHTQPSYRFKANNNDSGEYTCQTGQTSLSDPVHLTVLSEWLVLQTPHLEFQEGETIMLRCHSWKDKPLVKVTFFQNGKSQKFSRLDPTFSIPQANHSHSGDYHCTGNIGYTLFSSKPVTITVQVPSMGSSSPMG

[2] = target: T3, human FcγRIIa type H (allotype H131) (human, UniProt P12318 36-217); assay: as above
T3 construct: also called FcγRIIaH; FcγRIIa(H)
T3 sequence: T2 chain with R133H

human FcγRIIb [3] = target: T4, human FcγRIIb (human, UniProt P31994 43-217); assay: as above
T4 construct: also called FcγIIB
T4 sequence: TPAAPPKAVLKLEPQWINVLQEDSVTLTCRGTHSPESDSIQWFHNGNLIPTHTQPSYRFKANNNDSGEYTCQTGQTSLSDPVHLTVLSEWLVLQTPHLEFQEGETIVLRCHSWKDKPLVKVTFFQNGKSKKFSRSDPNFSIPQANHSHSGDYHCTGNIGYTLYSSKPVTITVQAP

human FcγRIIb [4] = target: T4, human FcγRIIb; assay: SPR (Biacore); KD of parent IL6R-B3/IL6R-L for FcγRIIb divided by KD of the variant for FcγRIIb
From the text: Furthermore, KD(IIaR)/KD(IIb) and KD(IIaH)/KD(IIb) in the table respectively represent the value obtained by dividing the KD value of each variant for FcγRIIaR by the KD value of each variant for FcγRIIb, and the value obtained by dividing the KD value of each variant for FcγRIIaH by the KD value of each variant for FcγRIIb.

FcγRIIb [5] = target: T5, FcγRIIb (human, UniProt P31994 43-217, limits assumed); assay: SPR (Biacore); ratio against the parent IL6R-B3/IL6R-L
T5 construct: Soluble analyte in Biacore; also called FcgRIIb; FcγIIB
T5 sequence: T4 sequence
Method: (§1) Next, interaction between these antibodies and FcγR was analyzed kinetically using the Biacore T100 (GE Healthcare). The interaction was measured at a temperature of 25° C. using HBS-EP+ (GE Healthcare) for the running buffer. The Series S Sensor Chip CM5 (GE Healthcare) was used after immobilizing Protein A by amine coupling. […] Antibody captured on the chip was washed by allowing 10 mM glycine-HCl (pH 1.5) to react following measurement. The chip regenerated in this manner was used repeatedly. The dissociation constant KD (mol/L) was calculated from the association rate constant ka (L/mol/s) and dissociation rate constant kd (1/s) as calculated by global-fitting the measurement results with a 1:1 Langmuir binding model using the Biacore

FcγRIa = target: T6, FcγRIa (human, UniProt P12314 16-292, limits assumed); assay: SPR (Biacore), antibody captured on chip, FcγR as analyte, method of Example 14
T6 construct: Soluble analyte in Biacore; also called FcgRIa; CD64
Method: as §1

FcγRIIa type R = target: T7, FcγRIIa type R (human, UniProt P12318 36-217); assay: as above
T7 construct: Soluble analyte in Biacore; also called FcγRIIaR; FcγRIIa(R)
T7 chain: T2 chain
Method: as §1

FcγRIIa type H = target: T8, FcγRIIa type H (human, UniProt P12318 36-217); assay: as above
T8 construct: Soluble analyte in Biacore; also called FcγRIIaH; FcγRIIa(H)
T8 sequence: T2 chain with R133H
Method: as §1

FcγRIIb [6] = target: T5, FcγRIIb; assay: as above
Method: as §1

mouse FcRn = target: T9, mouse FcRn (mouse, UniProt Q61559 22-297, limits assumed); assay: SPR (Biacore), mouse FcRn, pH 7.0
T9 construct: Soluble analyte in Biacore; also called mFcRn
T9 sequence (looked up) 1: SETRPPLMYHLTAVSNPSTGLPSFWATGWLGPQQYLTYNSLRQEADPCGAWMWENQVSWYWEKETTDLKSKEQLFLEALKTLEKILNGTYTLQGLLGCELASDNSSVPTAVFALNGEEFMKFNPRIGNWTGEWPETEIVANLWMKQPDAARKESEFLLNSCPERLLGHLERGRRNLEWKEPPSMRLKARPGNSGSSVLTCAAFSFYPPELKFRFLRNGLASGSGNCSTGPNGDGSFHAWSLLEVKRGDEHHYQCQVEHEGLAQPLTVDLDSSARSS
T9 sequence (looked up) 2: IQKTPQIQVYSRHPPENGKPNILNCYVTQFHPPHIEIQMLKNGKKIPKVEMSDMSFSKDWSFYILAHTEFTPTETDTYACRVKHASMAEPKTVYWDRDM
Method: The binding between antibody and mouse FcRn was kinetically analyzed using Biacore T100 (GE Healthcare). An appropriate amount of protein L (ACTIGEN) was immobilized onto Sensor chip CM4 (GE Healthcare) by the amino coupling method, and the chip was allowed to capture an antibody of interest. Then, diluted FcRn solutions and running buffer (as a reference solution) were injected to allow mouse FcRn to interact with the antibody captured on the sensor chip. The running buffer used contains 50 mmol/l sodium phosphate, 150 mmol/l NaCl, and 0.05% (w/v) Tween20 (pH 7.4). FcRn was diluted using each buffer. The sensorchip was regenerated using 10 mmol/l glycine-HCl (pH 1.5). Assays were carried out exclusively at 25 degrees C. The association rate constant ka (1/Ms) and dissociation rate constant kd (1/s), both of which are kinetic parameters, were calculated based on the sensorgrams obtained in the assays, and the KD (M) of each antibody for mouse FcRn was determined from these values. Each parameter was calculated using Biacore T100 Evaluation Software (GE Healthcare).

mouse FcγRIV = target: T10, mouse FcγRIV (mouse); assay: SPR (Biacore), antibody captured on Protein L, mouse FcγR as analyte, pH 7.4, 25 C
T10 construct: Bought soluble receptor; also called mFcgRIV; mFcgR IV
Method: Binding activity between the antibodies and mouse FcγRI, FcγRII, FcγRIII and FcγRIV (R&D Systems, Sin θ Biological) (hereinafter referred to as mouse FcγRs) was evaluated using the Biacore T100 or T200 (GE Healthcare). The antibodies being tested were captured by Protein L (ACTIGEN) that was immobilized in suitable amounts on the CM4 Sensor Chip (GE Healthcare) by amine coupling. Next, the diluted mouse FcγRs and a running buffer used as a blank were injected to allow interaction with the antibody captured on the sensor chip. A buffer consisting of 20 mmol/L ACES, 150 mmol/L NaCl and 0.05% (w/v) Tween 20 (pH 7.4) was used for the running buffer, and this buffer was also used to dilute the mouse FcγRs. 10 mmol/L glycine-HCl (pH 1.5) was used to regenerate the sensor chip. All measurements were carried out at 25° C.

human FcγRIIIa(F) = target: T11, human FcγRIIIa(F) (human, UniProt P08637 17-208, limits assumed); assay: SPR (Biacore), captured antibody, FcγR analyte; bound/captured amount vs control x100
T11 construct: also called FcgRIIIaF; FcγRIIIa allotype F158
T11 sequence (P08637 other isoform, or with tags, fused parts or gaps limits assumed): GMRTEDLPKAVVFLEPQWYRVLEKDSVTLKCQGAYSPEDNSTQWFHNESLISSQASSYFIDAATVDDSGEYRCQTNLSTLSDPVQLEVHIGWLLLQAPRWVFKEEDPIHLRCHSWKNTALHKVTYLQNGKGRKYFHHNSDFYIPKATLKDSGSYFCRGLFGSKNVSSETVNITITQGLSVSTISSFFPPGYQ
Method: Interaction between each modified antibody and Fcγ receptor prepared in the manner described above was analyzed using the Biacore T100 (GE Healthcare), Biacore T200 (GE Healthcare), Biacore A100 or Biacore 4000. HBS-EP+ (GE Healthcare) was used for the running buffer, and measurements were carried out at 25° C. The chips used were chips in which antigen peptides, Protein A (Thermo Scientific), Protein A/G (Thermo Scientific) or Protein L (ACTIGEN or BioVision) were immobilized on the Series S Sensor Chip CM5 (GE Healthcare) or Series S Sensor Chip CM4 (GE Healthcare) by amine coupling, or chips in which preliminarily biotinylated antigen peptides were allowed to interact and then immobilized on the Series S Sensor Chip SA (certified) (GE Healthcare). The target antibodies were captured on these sensor chips, Fcγ receptor diluted with the running buffer was allowed to interact, followed by measurement of the amount of bound antibody. The amounts bound were compared between antibodies. However, since the amount of Fcγ receptor bound depends on the amount of captured antibody, the values used for comparison were first corrected by dividing the amount of Fcγ receptor bound by the captured amount of each antibody. Through reaction with 10 mM glycine-HCl at pH 1.5, the sensor chips were regenerated by washing off antibody captured on the sensor chips and used repeatedly.

T6 sequence (P12314 16-292 limits assumed): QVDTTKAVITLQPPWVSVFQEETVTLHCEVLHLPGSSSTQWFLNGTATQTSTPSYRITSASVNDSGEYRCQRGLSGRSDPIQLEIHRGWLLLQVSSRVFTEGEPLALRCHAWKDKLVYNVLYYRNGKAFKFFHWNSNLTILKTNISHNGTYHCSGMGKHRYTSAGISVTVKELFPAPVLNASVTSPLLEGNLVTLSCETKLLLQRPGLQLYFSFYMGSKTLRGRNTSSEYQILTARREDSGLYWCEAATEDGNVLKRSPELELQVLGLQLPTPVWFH
T1 sequence (P12314 16-292 limits assumed): as above
T10 sequence (A0A0B4J1G0 21-203): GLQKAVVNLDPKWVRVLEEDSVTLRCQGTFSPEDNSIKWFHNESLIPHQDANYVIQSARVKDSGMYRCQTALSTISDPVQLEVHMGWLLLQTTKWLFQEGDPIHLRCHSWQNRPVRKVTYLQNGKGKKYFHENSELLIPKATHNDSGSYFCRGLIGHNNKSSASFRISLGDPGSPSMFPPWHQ

B1: IL6R-BP200/IL6R-L (antibody, human IgG1)
heavy: QVQLQESGPGLVKPSETLSLTCAVSGHSISHDHAWSWVRQPPGEGLEWIGFISYSGITNYNPSLQGRVTISRDNSKNTLYLQMNSLRAEDTAVYYCARSLARTTAMDYWGEGTLVTVSSASTKGPSVFPLAPSSKSTSGGTAALGCLVKDYFPEPVTVSWNSGALTSGVHTFPAVLQSSGLYSLSSVVTVPSSSLGTQTYICNVNHKPSNTKVDKKVEPKSCDKTHTCPPCPAPDYLGDDSVFLFPPKPKDTLMISRTPEVTCVVVDVSHEDGEVKFNWYVDGVEVHNAKTKPREEQYNSTYRVVSVLTVLHQDWLNGKEYKCKVSNDALPRPIEKTISKAKGQPREPQVYTLPPSRDELTKNQVSLTCLVKGFYPSDIAVEWESNGQPENNYKTTPPVLDSDGSFFLYSKLTVDKSRWQQGNVFSCSVMHEALHNHYTQESLSLSP
light: DIQMTQSPSSLSASVGDRVTITCRASQDISSYLNWYQQKPGKAPKLLIYYTSRLHSGVPSRFSGSGSGTDFTFTISSLQPEDIATYYCQQGNTLPYTFGQGTKVEIK
notes: Anti-human IL-6 receptor human IgG1 variant; uncertain; copies: 2 + 2
Kd (human FcγRIa): 33 nM | Kd [1]: 630 nM | Kd [2]: 4200 nM | Kd (human FcγRIIb [3]): 34 nM | KD(IIb) of the parent polypeptide/KD(IIb) of the altered polypeptide (human FcγRIIb [4]): 91.2

B4: GpH7-B3 D265S/GpL16-k0 (antibody, human IgG1)
heavy: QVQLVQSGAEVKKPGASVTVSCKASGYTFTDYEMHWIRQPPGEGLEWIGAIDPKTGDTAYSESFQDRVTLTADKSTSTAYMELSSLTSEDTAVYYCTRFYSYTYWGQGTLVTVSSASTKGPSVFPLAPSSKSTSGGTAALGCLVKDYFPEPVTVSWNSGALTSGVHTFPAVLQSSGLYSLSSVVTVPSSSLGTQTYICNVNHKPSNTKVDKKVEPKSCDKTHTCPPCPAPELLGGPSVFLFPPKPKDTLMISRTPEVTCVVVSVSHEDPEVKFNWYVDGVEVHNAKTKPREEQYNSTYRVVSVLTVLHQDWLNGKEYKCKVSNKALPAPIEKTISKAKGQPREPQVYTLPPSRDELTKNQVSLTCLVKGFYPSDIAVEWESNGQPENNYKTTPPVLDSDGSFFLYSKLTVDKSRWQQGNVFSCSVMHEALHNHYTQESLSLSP
light: DIVMTQSPLSLPVTPGEPASISCQASESLVHSNRNTYLHWYLQKPGQSPQLLIYKVSNRFSGVPDRFSGSGSGTDFTLKISRVEAEDVGVYYCSQNTHVPPTFGQGTKVEIE
notes: B3 variant of anti-glypican-3 IgG1; substitution in EU numbering; also called B3 variant
relative binding activity (human FcγRIIIa(F)): 2 % of GpH7-B3/GpL16-k0

The remaining lines, values ahead:

KD(IIb) of the parent polypeptide/KD(IIb) of the altered polypeptide (FcγRIIb [5]): 26.2 fold | Kd (FcγRIa): 59 nM | Kd (FcγRIIa type R): 1700 nM | Kd (FcγRIIa type H): 9200 nM | Kd (FcγRIIb [6]): 120 nM
B2: IL6R-BP214/IL6R-L (antibody, human IgG1)
heavy: B1 heavy with G273P, Y298D, R332K
light: B1 light
notes: Anti-human IL-6 receptor IgG1 Fc variant

binding result (mouse FcRn): no binding | BINDING AMOUNT (RU) (mouse FcγRIV): -3.5 RU
B3: antibody with mPM1H-mIgG1 heavy chain and L(WT)-CK light chain (antibody)
heavy: DVQLQESGPVLVKPSQSLSLTCTVTGYSITSDHAWSWIRQFPGNKLEWMGYISYSGITTYNPSLKSRISITRDTSKNQFFLQLNSVTTGDTSTYYCARSLARTTAMDYWGQGTSVTVSSAKTTPPSVYPLAPGSAAQTNSMVTLGCLVKGYFPEPVTVTWNSGSLSSGVHTFPAVLQSDLYTLSSSVTVPSSTWPSETVTCNVAHPASSTKVDKKIVPRDCGCKPCICTVPEVSSVFIFPPKPKDVLTITLTPKVTCVVVDISKDDPEVQFSWFVDDVEVHTAQTQPREEQFNSTFRSVSELPIMHQDWLNGKEFKCRVNSAAFPAPIEKTISKTKGRPKAPQVYTIPPPKEQMAKDKVSLTCMITDFFPEDITVEWQWNGQPAENYKNTQPIMDTDGSYFVYSKLNVQKSNWEAGNTFTCSVLHEGLHNHHTEKSLSHSPGK
light: not shown
notes: Natural mouse IgG1 constant region; In the Biacore assays the heavy chain was paired with L(WT)-CK; also called mPM1-mIgG1; copies: 2 + 2
